In general, Km refers to the substrate concentration at which the rate is half of its maximum. The term kcat denotes the number of substrate molecules converted per active site and unit of time at saturation. The term kcat/Km denotes the second-order rate constant that governs catalysis at low substrate concentration.

From paper PMC5369529, “Substrate selectivity of an isolated enoyl reductase catalytic domain from an iterative highly reducing fungal polyketide synthase reveals key components of programming” (Chemical Science, 2016) come the findings set out here.

In data set [1] the target is T1, isolated enoyl reductase (ER) domain of squalestatin tetraketide synthase (SQTKS) (Phoma sp. C2932, UniProt Q86ZD9).
T1 construct: gene pks1; isolated ER domain only, his6-tagged, from synthetic codon-optimised phpks1, expressed in E. coli; dimer; exact borders in ESI (model begins at G1886)
T1 sequence (Q86ZD9 1887-2207 limits assumed): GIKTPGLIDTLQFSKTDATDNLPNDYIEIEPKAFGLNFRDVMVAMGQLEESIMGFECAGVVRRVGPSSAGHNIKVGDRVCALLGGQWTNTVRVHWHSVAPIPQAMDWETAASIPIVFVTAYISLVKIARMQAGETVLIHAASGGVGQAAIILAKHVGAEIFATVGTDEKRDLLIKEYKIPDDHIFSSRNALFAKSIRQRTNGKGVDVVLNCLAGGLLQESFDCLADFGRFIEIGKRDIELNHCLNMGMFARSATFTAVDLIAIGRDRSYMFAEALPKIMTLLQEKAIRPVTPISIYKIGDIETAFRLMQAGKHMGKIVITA
Nature of the data set: inhibition of turnover of tigloyl pantetheine 5P. It is filed as biochemical. Conditions: substrate 5P, NADPH; inhibitor, not reduced.

Substrate in data set [2]: CCC(C)/C=C/C(=O)SCCNC(=O)CCNC(=O)[C@H](O)C(C)(C)CO
Nature of the data set: purified protein, by the assay type. Further details: continuous spectrophotometric assay, NADPH consumption at 340 nm, initial rates fitted to Michaelis-Menten. Conditions: 30.0 °C.

Substrate in data set [3]: CCC/C=C/C(=O)SCCNC(=O)CCNC(=O)[C@H](O)C(C)(C)CO
Description: purified protein, by the assay type. Conditions: 30.0 °C. The arrangement: continuous spectrophotometric assay, NADPH consumption at 340 nm, initial rates fitted to Michaelis-Menten.

Substrate in data set [4]: CC[C@H](C)/C=C(\C)C(=O)SCCNC(=O)CCNC(=O)[C@H](O)C(C)(C)CO
Description: purified protein, by the assay type. Conditions: 30.0 °C. Further details: continuous spectrophotometric assay, NADPH consumption at 340 nm, initial rates fitted to Michaelis-Menten.

Substrate in data set [5]: C/C=C(\C)C(=O)SCCNC(=O)CCNC(=O)[C@H](O)C(C)(C)CO
Nature of the data set: purified protein, by the assay type. The arrangement: continuous spectrophotometric assay, NADPH consumption at 340 nm, initial rates fitted to Michaelis-Menten. Conditions: 30.0 °C.

Substrate in data set [6]: C/C=C(\CC)C(=O)SCCNC(=O)CCNC(=O)[C@H](O)C(C)(C)CO
Description: purified protein, by the assay type. The arrangement: continuous spectrophotometric assay, NADPH consumption at 340 nm, initial rates fitted to Michaelis-Menten. Conditions: 30.0 °C.

Substrate in data set [7]: CC(C)CC/C=C/C(=O)SCCNC(=O)CCNC(=O)[C@H](O)C(C)(C)CO
Description: purified protein, by the assay type. Further details: continuous spectrophotometric assay, NADPH consumption at 340 nm, initial rates fitted to Michaelis-Menten. The following applies: 30.0 °C.

Substrate in data set [8]: C/C=C(/C)C(=O)SCCNC(=O)CCNC(=O)[C@H](O)C(C)(C)CO
Nature of the data set: purified protein, by the assay type. Further details: continuous spectrophotometric assay, NADPH consumption at 340 nm, initial rates fitted to Michaelis-Menten. The following applies: 30.0 °C.

Substrate in data set [9]: CCC/C=C(\C)C(=O)SCCNC(=O)CCNC(=O)[C@H](O)C(C)(C)CO
Nature of the data set: purified protein, by the assay type. Further details: continuous spectrophotometric assay, NADPH consumption at 340 nm, initial rates fitted to Michaelis-Menten. Conditions: 30.0 °C.

Substrate in data set [10]: CC(C)CCC/C=C/C(=O)SCCNC(=O)CCNC(=O)[C@H](O)C(C)(C)CO
Description: purified protein, by the assay type. Further details: continuous spectrophotometric assay, NADPH consumption at 340 nm, initial rates fitted to Michaelis-Menten. Conditions: 30.0 °C.

Substrate in data set [11]: CCC/C=C(\CC)C(=O)SCCNC(=O)CCNC(=O)[C@H](O)C(C)(C)CO
Nature of the data set: purified protein, by the assay type. Further details: continuous spectrophotometric assay, NADPH consumption at 340 nm, initial rates fitted to Michaelis-Menten. The following applies: 30.0 °C.

Substrate in data set [12]: CCCC/C=C/C(=O)SCCNC(=O)CCNC(=O)[C@H](O)C(C)(C)CO
Nature of the data set: purified protein, by the assay type. The arrangement: continuous spectrophotometric assay, NADPH consumption at 340 nm, initial rates fitted to Michaelis-Menten. Conditions: 30.0 °C.

Substrate in data set [13]: CCC(C)CC(C)/C=C/C(=O)SCCNC(=O)CCNC(=O)[C@H](O)C(C)(C)CO
Nature of the data set: purified protein, by the assay type. Conditions: 30.0 °C. The arrangement: continuous spectrophotometric assay, NADPH consumption at 340 nm, initial rates fitted to Michaelis-Menten.

Substrate in data set [14]: CCCCC/C=C/C(=O)SCCNC(=O)CCNC(=O)[C@H](O)C(C)(C)CO
Nature of the data set: purified protein, by the assay type. Conditions: 30.0 °C. Further details: continuous spectrophotometric assay, NADPH consumption at 340 nm, initial rates fitted to Michaelis-Menten.

With `CC[C@H](C)C[C@H](C)/C=C/C(=O)SCCNC(=O)CCNC(=O)[C@H](O)C(C)(C)CO` [1P, squalestatin tetraketide pantetheine], the “inhibition of turnover of tigloyl pantetheine 5P” value in data set [1] is recorded as “it does act as an inhibitor of the ER in vitro”.

B1: isolated enoyl reductase (ER) domain of squalestatin tetraketide synthase (SQTKS) (Phoma sp. C2932) (protein)
chain: T1 sequence (Q86ZD9 1887-2207 limits assumed)
notes: isolated ER domain only, his6-tagged, from synthetic codon-optimised phpks1, expressed in E. coli; dimer; exact borders in ESI (model begins at G1886)
On to B1, for which the Km in [2] amounted to 0.18 µM; in data set [3], 0.23 µM; in [4], 0.41 µM; in data set [5] it was 0.69 µM; in data set [6], 0.16 µM; in data set [7], 0.52 µM. Besides, the Michaelis-Menten constant (Km) in data set [8] is 0.44 µM; in data set [9], 0.54 µM; in data set [10] it was 4.70 µM; in [11], 0.19 µM; in data set [12], 0.18 µM; in [13], 0.18 µM. For the same molecule, in data set [14], the Michaelis-Menten constant (Km) worked out at 0.6 µM. Besides, the kcat in [2] was determined as 5.9 s⁻¹; in data set [3] it was 25.9 s⁻¹; in data set [4], 48.8 s⁻¹; in data set [5], 8.9 s⁻¹; in data set [6] it was 2.58 s⁻¹; in data set [7], 5.6 s⁻¹. Further, the catalytic constant (kcat) in data set [8] is 11.4 s⁻¹; in data set [9] it was 415 s⁻¹; in [10], 0.85 s⁻¹; in data set [11], 4.71 s⁻¹; in data set [12] it was 7.11 s⁻¹; in [13] it was 2 s⁻¹. Further, in [14], the kcat was 9 s⁻¹. For the same molecule, the kcat/Km came out at 3.28e+07 M⁻¹ s⁻¹ in data set [2]; 1.13e+08 M⁻¹ s⁻¹ in data set [3]; 1.19e+08 M⁻¹ s⁻¹ in data set [4]; 1.29e+07 M⁻¹ s⁻¹ in data set [5]; 1.61e+07 M⁻¹ s⁻¹ in data set [6]; 1.08e+07 M⁻¹ s⁻¹ in data set [7]. Moreover, the catalytic efficiency (kcat/Km) in data set [8] was found to be 2.59e+07 M⁻¹ s⁻¹; in data set [9], 7.68e+08 M⁻¹ s⁻¹; in data set [10] it was 200000 M⁻¹ s⁻¹; in data set [11] it was 2.48e+07 M⁻¹ s⁻¹; in [12], 3.95e+07 M⁻¹ s⁻¹; in data set [13], 1.11e+07 M⁻¹ s⁻¹. In [14], the specificity constant (kcat/Km) came to 1.5e+07 M⁻¹ s⁻¹.
